Laboratory results reported in PMC8562373 (Biochemistry (Moscow) Supplement. Series B, Biomedical …, 2021).

Target: SARS-CoV-2 protein S receptor-binding domain (RBD), original Wuhan strain (SARS-CoV-2, UniProt P0DTC2 331-524)
Assay: MST

| Binder | Kd [mM] |
| --- | --- |
| IEEQAKTFLDKFNHQAEDLFYK [h1-Mpa peptide (h1 with Lys31 modified with 3-mercaptopropionic acid)] | > 1 |
| DKWSAFLKECSTIAQIYPLQEI [h2-Cys peptide (h2 with Gln76 replaced with Cys76)] | > 1 |
